Substrate in series [1]: O=C(OCCO)c1ccc(C(=O)OCCO)cc1
Description: purified protein. The format is biochemical, Chryseobacterium sp. PET-29. To be noted: 50 mM potassium phosphate (Na2HPO4-NaH2PO4), pH 7.5, 30 °C, BHET 0.8-15 mM.

Substrate in series [2]: O=C(OCCO)c1ccc(C(=O)OCCO)cc1
The series is described as follows: purified protein. The conditions noted are these: 50 mM potassium phosphate (Na2HPO4-NaH2PO4), pH 7.5, 30 °C, BHET 0.8-15 mM. The format is biochemical, Bacillus subtilis.

Here are results for four proteins from PMC10344914, “Discovery and mechanism-guided engineering of BHET hydrolases for improved PET recycling and upcycling” (Nature Communications, 2023).

B1: ChryBHETase (Chryseobacterium sp. PET-29; DEL66-76/INS65GG) (protein)
chain: MTTQQHKKIHTFHTSFGTIPALKGNGVIRAKSIRYARSQRFKKPEPLPYPEHDEIPDKTPVCPQNGGTDVEQFEPDESPQFLTITRPEHFNENEKLPVIVWIHGGSYEIGCGDLPTSDPSVWVKEQHIIVVSVSYRLGLFGFLGGSEERPANLGLYDMIAALQWIKQYIRDFGGDPENITLFGQSSGGDAIAHLMISEETENLFRHVIIHSAPLGFRINRQKMSHEFFLKTDILKDEPDALKMVAGYRTFLPSFRKYGLKTSMPFCTQYGHPPLCQEEETMPNWKQNAKKYDVLIGSNQDETAFYVKTSQTGIYTYLPQRILNKIVRKTTASIYEKPAKAFAENLAAGGGNVYQFVIRSTLKSNNIGASHCVDLPLLFENKEAWQSAELLKDVPWEYIQENGKKLRALWAEFARSGSISEDSERPEILKLKKVKN
notes: catalytic triad S194-E310-H379; V66-K76 barrier
As to B1, in series [1], the Km is 120 ± 30 µM, the kcat was found to be 12.9 ± 1.24 s⁻¹ and the kcat/Km is 109000 ± 12900 M⁻¹ s⁻¹.

B2: BsEst (Bacillus subtilis subsp. subtilis str. 168; DEL410-418/INS409GG) (protein)
chain: MTHQIVTTQYGKVKGTTENGVHKWKGIPYAKPPVGQWRFKAPEPPEVWEDVLDATAYGSICPQPSDLLSLSYTELPRQSEDCLYVNVFAPDTPSKNLPVMVWIHGGAFYLGAGSEPLYDGSKLAAQGEVIVVTLNYRLGPFGFLHLSSFNEAYSDNLGLLDQAAALKWVRENISAFGGDPDNVTVFGESAGGMSIAALLAMPAAKGLFQKAIMESGASRTMTKEQAASTSAAFLQVLGINEGQLDKLHTVSAEDLLKAADQLRIAEKENIFQLFFQPALDPKTLPEEPEKAIAEGAASGIPLLIGTTRDEGYLFFTPDSDVHSQETLDAALEYLLGKPLAEKVADLYPRSLESQIHMMTDLLFWRPAVAYASAQSHYAPVWMYRFDWHPKKPPYNKAFHALELPFVFGNGGAEITDEVKQLSHTIQSAWITFAKTGNPSTEAVNWPAYHEETRETLILDSEITIENDPESEKRQKLFPSKGE
notes: catalytic triad S189-E310-H399; L410-K418 barrier
For the protein B2, in series [2], the Km came to 80 ± 30 µM, the kcat was found to be 102 ± 5.18 s⁻¹ and the kcat/Km was found to be 1.35e+06 ± 334000 M⁻¹ s⁻¹.

B3: ChryBHETase (Chryseobacterium sp. PET-29) (protein)
chain: MTTQQHKKIHTFHTSFGTIPALKGNGVIRAKSIRYARSQRFKKPEPLPYPEHDEIPDKTPVCPQNVSPLLDRLIQKTDVEQFEPDESPQFLTITRPEHFNENEKLPVIVWIHGGSYEIGCGDLPTSDPSVWVKEQHIIVVSVSYRLGLFGFLGGSEERPANLGLYDMIAALQWIKQYIRDFGGDPENITLFGQSSGGDAIAHLMISEETENLFRHVIIHSAPLGFRINRQKMSHEFFLKTDILKDEPDALKMVAGYRTFLPSFRKYGLKTSMPFCTQYGHPPLCQEEETMPNWKQNAKKYDVLIGSNQDETAFYVKTSQTGIYTYLPQRILNKIVRKTTASIYEKPAKAFAENLAAGGGNVYQFVIRSTLKSNNIGASHCVDLPLLFENKEAWQSAELLKDVPWEYIQENGKKLRALWAEFARSGSISEDSERPEILKLKKVKN
notes: as for B1
For the protein B3, in series [1], the Km came out at 90 ± 20 µM, the kcat was determined as 6.85 ± 0.53 s⁻¹ and the kcat/Km came to 77400 ± 11000 M⁻¹ s⁻¹.

B4: BsEst (Bacillus subtilis subsp. subtilis str. 168) (protein)
chain: MTHQIVTTQYGKVKGTTENGVHKWKGIPYAKPPVGQWRFKAPEPPEVWEDVLDATAYGSICPQPSDLLSLSYTELPRQSEDCLYVNVFAPDTPSKNLPVMVWIHGGAFYLGAGSEPLYDGSKLAAQGEVIVVTLNYRLGPFGFLHLSSFNEAYSDNLGLLDQAAALKWVRENISAFGGDPDNVTVFGESAGGMSIAALLAMPAAKGLFQKAIMESGASRTMTKEQAASTSAAFLQVLGINEGQLDKLHTVSAEDLLKAADQLRIAEKENIFQLFFQPALDPKTLPEEPEKAIAEGAASGIPLLIGTTRDEGYLFFTPDSDVHSQETLDAALEYLLGKPLAEKVADLYPRSLESQIHMMTDLLFWRPAVAYASAQSHYAPVWMYRFDWHPKKPPYNKAFHALELPFVFGNLDGLERMAKAEITDEVKQLSHTIQSAWITFAKTGNPSTEAVNWPAYHEETRETLILDSEITIENDPESEKRQKLFPSKGE
notes: as for B2
Regarding B4, in series [2], the Km is 100 ± 20 µM, the kcat amounted to 37.7 ± 1.98 s⁻¹ and the kcat/Km worked out at 382000 ± 84500 M⁻¹ s⁻¹.

In general, Km refers to the substrate concentration at which the rate is half of its maximum. For orientation: kcat means the number of substrate molecules converted per active site and unit of time at saturation. Broadly, the kcat/Km is the second-order rate constant that governs catalysis at low substrate concentration.
